Measurements as given in patent publication US20030040012A1 (published 2003).
Positions count from the first letter of the chain named. In names and notes the source's numbering stands.

B1: fusion protein HA-Npw38 (other)
chain: MPLPVALQTRLAKRGILKHLEPEPEEEIIAEDYDDDPVDYEATRLEGLPPSWYKVFDPSCGLPYYWNADTDLVSWLSPHDPNSVVTKSAKKLRSSNADAEEKLDRSHDKSDRGHDKSDRSHEKLDRGHDKSDRGHDKSDRDRERGYDKVDRERERDRERDRDRGYDKADREEGKERRHHRREELAPYPKSKKAVSRKDEELDPMDPSSYSDAPRGTWSTGLPKRNEAKTGADTTAAGPLFQQRPYPSPGAVLRANAEASRTKQQD
notes: All are treated as the same molecule; not shown: HA tag (protein A of fusion A-X)
B2: Npw38(W52A), a WW domain variant of Npw38 (other)
chain: B1 chain with W52A
notes: Expressed in COS7 cells in place of HA-Npw38

Assays:
[1] = molecular target: T1, fusion protein NpwBP(P2)-GFP (UniProt P42212 1-238 = GFP, limits assumed); assay: co-expression in COS7 cells, fluorescence microscopy of GFP localization
T1 construct: Expressed inside COS7 cells from pKA1-NpwBP(P2)-GFP; also called NpwBP-GFP
Method: After the medium was removed, the cell sur were washed with a phosphate buffer solution (PBS), and then further washed with a 50 mM Tris-HCl (pH 7.5)-containing DMEM. To these cells, added was a suspension comprising 1 μl of a plasmid suspension, 0.6 ml of DMEM and 3 μl of […]™ (from IBF), and incubated in the presence of 5% CO₂ at 37° C. for 12 hours. Then, the cells were washed with PBS, and fixed with 4% peraformaldehyde-containing PBS at room temperature for 10 minutes. The thus-fixed cells were washed with PBS, then treated with 0.2% Triton X-100, and thereafter blocked with 5% milk PBS. […]
First, pKA1-NpwBP(P1)-GFP or pKA1-NpwBP(P2)-GFP was singly introduced into COS7 cells, and the localization of these fusion proteins in the cells was checked through fluorescence microscopy based on the green fluorescence of GFP as the index thereof. […] Next, along with these NpwBP-GFP fusion protein expression vectors, an Npw38 expression vector, pKA1-Npw38 was introduced into COS7 cells, and the green fluorescence was localized in the nucleus of each cell (FIG. 3b). […] On the other hand, when Npw38(W52A) (A. Komuro et al., Nucl. Acids Res., 27: 1957-1965, 1999), which is a WW domain variant of Npw38, was expressed in the cells in place of HA-Npw38, or when GFP was expressed in the cells in place of NpwBP-GFP, no intranuclear localization of the green fluorescence was found.

[2] = molecular target: T2, NpwBP (Homo sapiens (Human), UniProt Q9Y2W2 1-641); assay: competition by co-expression in COS7 cells, GFP localization
T2 construct: Expressed inside COS7 cells, without an added protein A because it has its own nuclear localization signal
T2 sequence: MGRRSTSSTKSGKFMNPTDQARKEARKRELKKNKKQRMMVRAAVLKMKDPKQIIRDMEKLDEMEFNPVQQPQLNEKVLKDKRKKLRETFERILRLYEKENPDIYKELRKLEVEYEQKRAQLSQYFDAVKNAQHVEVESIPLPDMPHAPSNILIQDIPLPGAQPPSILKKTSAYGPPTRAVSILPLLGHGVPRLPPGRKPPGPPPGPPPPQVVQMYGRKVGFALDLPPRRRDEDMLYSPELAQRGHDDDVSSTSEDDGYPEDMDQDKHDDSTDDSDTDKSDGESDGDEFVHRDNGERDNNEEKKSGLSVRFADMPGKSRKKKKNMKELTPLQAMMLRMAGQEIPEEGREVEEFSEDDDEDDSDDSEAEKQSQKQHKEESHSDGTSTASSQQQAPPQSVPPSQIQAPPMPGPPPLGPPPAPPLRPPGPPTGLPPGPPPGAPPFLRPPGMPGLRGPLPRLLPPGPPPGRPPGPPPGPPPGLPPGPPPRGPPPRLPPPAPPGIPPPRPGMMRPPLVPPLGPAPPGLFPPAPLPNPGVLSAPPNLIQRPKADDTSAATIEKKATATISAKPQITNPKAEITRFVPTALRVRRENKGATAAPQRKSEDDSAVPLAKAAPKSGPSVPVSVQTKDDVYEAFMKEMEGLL

Row | Binder | binding result [1] | binding result [2]
1 | B1 | binds | binds
2 | B2 | no binding | –
